The assay has as its target T1, eIF2γ (γ subunit of eIF2, as in the eIF2αγ dimer) (human, UniProt P41091 1-472).
T1 construct: eIF2 gamma subunit (eIF2γ); The γ chain of m6, written alone for the pairs that touch in the crystal structure; also called human eIF2γ; source: E. coli, co-expressed with eIF2α and CDC123 from a multicistronic plasmid, purified as eIF2αγ
Briefly: crystal structure; 7.5 mg/mL eIF2αγ combined with PPP1R15A_R3^420-452 at a molar ratio of 1:8 with 0.5 mM GMPPNP and 5 mM MgCl2; sitting drop, 20 °C; 11 to 12% PEG 6000, 0.1 M Tris-HCl pH 8.5; 3.35 Å. The conditions noted are these: both partners purified.

T1 sequence (P41091 whole entry): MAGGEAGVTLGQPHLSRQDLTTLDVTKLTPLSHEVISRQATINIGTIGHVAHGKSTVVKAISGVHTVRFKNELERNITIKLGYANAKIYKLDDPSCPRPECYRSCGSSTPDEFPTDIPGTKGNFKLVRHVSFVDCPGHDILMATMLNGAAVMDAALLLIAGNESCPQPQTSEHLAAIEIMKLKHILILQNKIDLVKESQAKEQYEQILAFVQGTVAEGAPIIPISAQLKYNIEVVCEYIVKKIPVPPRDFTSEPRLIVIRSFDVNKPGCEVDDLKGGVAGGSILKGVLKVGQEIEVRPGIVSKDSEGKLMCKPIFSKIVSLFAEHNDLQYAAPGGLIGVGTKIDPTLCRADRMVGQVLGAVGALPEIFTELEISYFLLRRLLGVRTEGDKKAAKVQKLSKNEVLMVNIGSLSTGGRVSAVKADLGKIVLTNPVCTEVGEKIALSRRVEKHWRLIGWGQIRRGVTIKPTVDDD

B1: PPP1R15A^420-452 (R3) peptide (peptide)
peptide: not shown
notes: residue numbers based on UniProt O75807; Only residues 426-434 were built in the structure
B1: the binding result is reported as “binds”.

The record behind these values is PMC10998612 (Proceedings of the National Academy of Sciences of the …, 2024).
